The record followed here is patent US20050182242A1, “Global analysis of protein activities using proteome chips” (priority 2001, published 2005).

The labels stand for the following.
B1: FUR1: yeast GST-HisX6 fusion protein on proteome chip (protein, UniProt P18562 1-216, looked up)
Uracil …: MSSEPFKNVYLLPQTNQLLGLYTIIRNKNTTRPDFIFYSDRIIRLLVEEGLNHLPVQKQIVETDTNENFEGVSFMGKICGVSIVRAGESMEQGLRDCCRSVRIGKILIQRDEETALPKLFYEKLPEDISERYVFLLDPMLATGGSAIMATEVLIKRGVKPERIYFLNLICSKEGIEKYHAAFPEVRIVTGALDRGLDENKYLVPGLGDFGDRYYCV
modifications: GST-His6 fusion tag
notes: yeast GST-HisX6 fusion protein on proteome chip
B2: APS2: yeast GST-HisX6 fusion protein on proteome chip (protein, UniProt Q00381 1-147, looked up)
AP-2 complex subunit sigma: MAVQFILCFNKQGVVRLVRWFDVHSSDPQRSQDAIAQIYRLISSRDHKHQSNFVEFSDSTKLIYRRYAGLYFVMGVDLLDDEPIYLCHIHLFVEVLDAFFGNVCELDIVFNFYKVYMIMDEMFIGGEIQEISKDMLLERLSILDRLD
modifications: GST-HisX6 tag
notes: as for B1
B3: ARP10: yeast GST-HisX6 fusion protein on proteome chip (protein, UniProt Q04549 1-284, looked up)
Actin-like protein ARP10: MSNTIVIVYLGANRIEIGRSADACPQEIIAWKTGSINEKNREELKKIFEHYFQICNILGNREVQVLILEDIFISVVEKRIICSILFKEFDCAHVSFVPRAIVHCLSCNTRNAIVIDIGTNYTTCVPIFDLRPLQQFIKYSKRGKRQVESRIPLPGSLYMPIFFDEEYNSKNCEVDETPVINLVKNIVESLPIDLRRPLRENIIIVNIEEAYETVIRNLFKLKMDTSKIQFPKNYWQAGSACAKILLHYKGSNIVGIERDEFYNNPHIAPDWFDYYFRTGVKRLQ
modifications: GST-HisX6 tag
notes: as for B1
B4: FBP26: yeast GST-HisX6 fusion protein on proteome chip (protein, UniProt P32604 1-452, looked up)
Fructose-2,6-bisphosphatase: MGYSTISNDNDIKVCVIMVGLPARGKSFISQKIIRYLSWLSIKAKCFNVGNYRRDVSGNVPMDAEFFNFENTDNFKLRELAAQNAIKDIVNFFTKEDGSVAVFDATNSTRKRRKWLKDICEKNNIQPMFLESWSNDHELIINNAKDIGSTSPDYENSEPHVAEADFLERIRQYERFYEPLDPQKDKDMTFIKLVNIIEEVVINKIRTYLESRIVFYVMNIRPKPKYIWLSRHGESIYNVEKKIGGDSSLSERGFQYAKKLEQLVKESAGEINLTVWTSTLKRTQQTANYLPYKKLQWKALDELDAGVCDGMTYEEIEKEYPEDFKARDNDKYEYRYRGGESYRDVVIRLEPVIMELERQENVLIITHQAVLRCIYAYFMNVPQEESPWMSIPLHTLIKLEPRAYGTKVTKIKANIPAVSTYKEKGTSQVGELSQSSTKLHQLLNDSPLEDKF
modifications: GST-His6 tag
notes: as for B1
B5: PEX4: yeast GST-HisX6 fusion protein on proteome chip (protein, UniProt P29340 1-183, looked up)
Ubiquitin-conjugating enzyme …: MPNFWILENRRSYTSDTCMSRIVKEYKVILKTLASDDPIANPYRGIIESLNPIDETDLSKWEAIISGPSDTPYENHQFRILIEVPSSYPMNPPKISFMQNNILHCNVKSATGEICLNILKPEEWTPVWDLLHCVHAVWRLLREPVCDSPLDVDIGNIIRCGDMSAYQGIVKYFLAERERINNH
modifications: GST-His6 tag
notes: as for B1
B6: TAT2: yeast GST-HisX6 fusion protein on proteome chip (protein, UniProt P38967 1-592, looked up)
Tryptophan permease: MTEDFISSVKRSNEELKERKSNFGFVEYKSKQLTSSSSHNSNSSHHDDDNQHGKRNIFQRCVDSFKSPLDGSFDTSNLKRTLKPRHLIMIAIGGSIGTGLFVGSGKAIAEGGPLGVVIGWAIAGSQIIGTIHGLGEITVRFPVVGAFANYGTRFLDPSISFVVSTIYVLQWFFVLPLEIIAAAMTVQYWNSSIDPVIWVAIFYAVIVSINLFGVRGFGEAEFAFSTIKAITVCGFIILCVVLICGGGPDHEFIGAKYWHDPGCLANGFPGVLSVLVVASYSLGGIEMTCLASGETDPKGLPSAIKQVFWRILFFFLISLTLVGFLVPYTNQNLLGGSSVDNSPFVIAIKLHHIKALPSIVNAVILISVLSVGNSCIFASSRTLCSMAHQGLIPWWFGYIDRAGRPLVGIMANSLFGLLAFLVKSGSMSEVFNWLMAIAGLATCIVWLSINLSHIRFRLAMKAQGKSLDELEFVSAVGIWGSAYSALINCLILIAQFYCSLWPIGGWTSGKERAKIFFQNYLCALIMLFIFIVHKIYYKCQTGKWWGVKALKDIDLETDRKDIDIEIVKQEIAEKKMYLDSRPWYVRQFHFWC
modifications: GST-His6 tag
notes: as for B1
B7: VTC4: yeast GST-HisX6 fusion protein on proteome chip (protein, UniProt P47075 1-721, looked up)
Vacuolar transporter …: MKFGEHLSKSLIRQYSYYYISYDDLKTELEDNLSKNNGQWTQELETDFLESLEIELDKVYTFCKVKHSEVFRRVKEVQEQVQHTVRLLDSNNPPTQLDFEILEEELSDIIADVHDLAKFSRLNYTGFQKIIKKHDKKTGFILKPVFQVRLDSKPFFKENYDELVVKISQLYDIARTSGRPIKGDSSAGGKQQNFVRQTTKYWVHPDNITELKLIILKHLPVLVFNTNKEFEREDSAITSIYFDNENLDLYYGRLRKDEGAEAHRLRWYGGMSTDTIFVERKTHREDWTGEKSVKARFALKERHVNDFLKGKYTVDQVFAKMRKEGKKPMNEIENLEALASEIQYVMLKKKLRPVVRSFYNRTAFQLPGDARVRISLDTELTMVREDNFDGVDRTHKNWRRTDIGVDWPFKQLDDKDICRFPYAVLEVKLQTQLGQEPPEWVRELVGSHLVEPVPKFSKFIHGVATLLNDKVDSIPFWLPQMDVDIRKPPLPTNIEITRPGRSDNEDNDFDEDDEDDAALVAAMTNAPGNSLDIEESVGYGATSAPTSNTNHVVESANAAYYQRKIRNAENPISKKYYEIVAFFDHYFNGDQISKIPKGTTFDTQIRAPPGKTICVPVRVEPKVYFATERTYLSWLSISILLGGVSTTLLTYGSPTAMIGSIGFFITSLAVLIRTVMVYAKRVVNIRLKRAVDYEDKIGPGMVSVFLILSILFSFFCNLVAK
modifications: GST-HisX6 tag
notes: as for B1
B8: MPS1: yeast GST-HisX6 fusion protein on proteome chip (protein, UniProt P54199 1-764, looked up)
Serine/threonine-protein …: MSTNSFHDYVDLKSRTNTRQFSDDEEFTTPPKLSNFGSALLSHTEKTSASEILSSHNNDKIANRLEEMDRSSSRSHPPPSMGNLTSGHTSTSSHSTLFGRYLRNNHQTSMTTMNTSDIEINVGNSLDKSFERIRNLRQNMKEDITAKYAERRSKRFLISNRTTKLGPAKRAMTLTNIFDEDVPNSPNQPINARETVELPLEDSHQTNFKETKRNTDYDSIDFGDLNPIQYIKKHNLPTSDLPLISQIYFDKQREENRQAALRKHSSRELLYKSRSSSSSLSSNNLLANKDNSITSNNGSQPRRKVSTGSSSSKSSIEIRRALKENIDTSNNSNFNSPIHKIYKGISRNKDSDSEKREVLRNISINANHADNLLQQENKRLKRSLDDAITNENINSKNLEVFYHRPAPKPPVTKKVEIVEPAKSASLSNNRNIITVNDSQYEKIELLGRGGSSRVYKVKGSGNRVYALKRVSFDAFDDSSIDGFKGEIELLEKLKDQKRVIQLLDYEMGDGLLYLIMECGDHDLSQILNQRSGMPLDFNFVRFYTKEMLLCIKVVHDAGIVHSDLKPANFVLVKGILKIIDFGIANAVPEHTVNIYRETQIGTPNYMAPEALVAMNYTQNSENQHEGNKWKVGRPSDMWSCGCIIYQMIYGKPPYGSFQGQNRLLAIMNPDVKIPFPEHTSNNEKIPKSAIELMKACLYRNPDKRWTVDKVLSSTFLQPFMISGSIMEDLIRNAVRYGSEKPHISQDDLNDVVDTVLRKFADYKI
modifications: GST-HisX6 tag
notes: as for B1
B9: FRM2: yeast GST-HisX6 fusion protein on proteome chip (protein, UniProt P37261 1-193, looked up)
nitroreductase FRM2: MSPTGNYLNAITNRRTIYNLKPELPQGVGLDDVKRTVHVILKNTPTAFNSQVNRAVIIVGDTHKRIWDAVASAMPTAEAKKRPESCRDEAYGSVIFFTDEGPTEKLQRDFPALAAAFPTCAAHTTGAVQIQSWTALELLGLGANLQHYNDYVKSALPQDVPIAWTVQSQLVFGVPTALPEEKTFINNVINVYH
modifications: GST-His6 fusion tag
notes: as for B1

The subject of the first data set is phosphatidylcholine (PC) liposomes. The data set can be described thus: Yeast proteome chip probed with PC liposomes. The settings on record: liposome binding signal on yeast proteome chip, Cy3-streptavidin detection. The method in brief:
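Sonicated liposomes in TBS, of phosphatidylcholine with 1% (w/w) biotin-DHPE plus 5% (w/w) of the named phosphoinositide (PC-only liposomes lacking it), were incubated on blocked chips of GST-RGS-His6-tagged yeast ORF proteins for 1 h at RT. Bound liposomes were detected with Cy3- or Cy5-streptavidin after PBS washes.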
B1 gave a PC of 95.67.

B2 had a PC of 58.70.

Molecule B3 gave a PC of 119.74.

The molecule B4 gave a PC of 107.41.

Molecule B5 returned a PC of 69.85.

B6: the PC is 83.93.

For the molecule B7, the PC turned out to be 66.03.

In turn, B8 had a PC of 4374.59.

B9: the PC is reported as 63.39.

The subject of another data set is PI(4)P liposomes. The data set can be described thus: Yeast proteome chip probed with PI(4)P liposomes. The settings on record: liposome binding signal on yeast proteome chip, Cy3-streptavidin detection.
As to B1, the “PI(4)P” value came to 148.94.

Turning to B2, the “PI(4)P” value was determined as 159.82.

On to B3, for which the “PI(4)P” value is listed as 98.64.

Turning to B4, the “PI(4)P” value was determined as 62.06.

Take B5: the “PI(4)P” value came to 57.48.

As for B6, the “PI(4)P” value turned out to be 51.39.

Consider B7, for which the “PI(4)P” value was found to be 99.07.

For B8, the “PI(4)P” value was found to be 6148.60.

Consider B9, for which the “PI(4)P” value is on record as 12.63.

Another data set has as its system PI(4,5)P2 liposomes. The data set can be described thus: Yeast proteome chip probed with PI(4,5)P2 liposomes. The following applies: liposome binding signal on yeast proteome chip, Cy3-streptavidin detection.
With B1, the “PI(4, 5)P2” value amounted to 111.70.

For the molecule B2, the “PI(4, 5)P2” value was determined as 103.65.

B3: the “PI(4, 5)P2” value turned out to be 32.01.

For B4, the “PI(4, 5)P2” value was found to be 47.90.

B5: the “PI(4, 5)P2” value is given as 28.31.

In the case of B6, the “PI(4, 5)P2” value turned out to be 85.79.

In the case of B7, the “PI(4, 5)P2” value was determined as 26.78.

For B8, the “PI(4, 5)P2” value is reported as 1084.79.

As for B9, the “PI(4, 5)P2” value turned out to be 75.34.

A further data set has as its system PI(3,4)P2 liposomes. The data set can be described thus: Yeast proteome chip probed with PI(3,4)P2 liposomes. The following applies: liposome binding signal on yeast proteome chip, Cy3-streptavidin detection.
In the case of B1, the “PI(3, 4)P2” value came to 210.19.

Take B2: the “PI(3, 4)P2” value was found to be 56.51.

As to B3, the “PI(3, 4)P2” value worked out at 29.20.

Regarding B4, the “PI(3, 4)P2” value was found to be 48.51.

Consider B5, for which the “PI(3, 4)P2” value was 8.63.

Consider B6, for which the “PI(3, 4)P2” value is listed as 62.48.

B7: the “PI(3, 4)P2” value is 30.45.

As to B8, the “PI(3, 4)P2” value is 4216.40.

For the molecule B9, the “PI(3, 4)P2” value was 59.34.

The subject of the next data set is PI(3,4,5)P3 liposomes. The data set is described as follows: Yeast proteome chip probed with PI(3,4,5)P3 liposomes. The following applies: liposome binding signal on yeast proteome chip, Cy3-streptavidin detection.
Turning to B1, the “PI(3, 4, 5)P3” value was 72.22.

Take B2: the “PI(3, 4, 5)P3” value was 15.97.

For B3, the “PI(3, 4, 5)P3” value was determined as 30.15.

For the molecule B4, the “PI(3, 4, 5)P3” value came to 25.31.

In the case of B5, the “PI(3, 4, 5)P3” value turned out to be 21.49.

Consider B6, for which the “PI(3, 4, 5)P3” value was 68.29.

Consider B7, for which the “PI(3, 4, 5)P3” value is 25.31.

For B8, the “PI(3, 4, 5)P3” value is 1864.12.

On to B9, for which the “PI(3, 4, 5)P3” value was 16.88.

In the next data set the test system is PI(3)P liposomes. The data set can be described thus: Yeast proteome chip probed with PI(3)P liposomes. The following applies: liposome binding signal on yeast proteome chip, Cy3-streptavidin detection.
On to B1, for which the “PI(3)P” value came to 112.25.

Regarding B2, the “PI(3)P” value is 39.50.

For B3, the “PI(3)P” value was determined as 51.00.

On to B4, for which the “PI(3)P” value was found to be 5.75.

On to B5, for which the “PI(3)P” value amounted to 1.75.

Consider B6, for which the “PI(3)P” value turned out to be 60.50.

On to B7, for which the “PI(3)P” value worked out at 8.50.

Consider B8, for which the “PI(3)P” value turned out to be 310.00.

B9: the “PI(3)P” value is recorded as 3.50.
